The source of these data is publication PMC8470133, “Aptasensor for the Detection of Mycobacterium tuberculosis in Sputum Utilising CFP10-ESAT6 Protein as a Selective Biomarker”.

In this data set the target is T1, CFP10-ESAT6 antigen (Mycobacterium tuberculosis, UniProt P9WNK5;P9WNK7 2-100;2-95).
T1 chain 1: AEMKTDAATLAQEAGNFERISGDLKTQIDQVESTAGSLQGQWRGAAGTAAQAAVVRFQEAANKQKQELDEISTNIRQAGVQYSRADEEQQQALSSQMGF
T1 chain 2: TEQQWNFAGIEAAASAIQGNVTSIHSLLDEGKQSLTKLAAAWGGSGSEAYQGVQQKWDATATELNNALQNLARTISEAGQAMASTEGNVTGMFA
In words: circular dichroism; Sensor: antigen incubated 1 h at 37 °C on aptamer electrode blocked with 0.25% BSA, PBS wash; DPV in 0.1 M PBS pH 7.4; CD buffer not given. The following applies: protein: commercial; copies: 1;1; folded.

B1: CapApt (CFP10-ESAT6 aptamer) (ssDNA)
DNA: GCCTGTTGTGAGCCTCCTAACCCCATCTTATACGTATATGGACTCATCTCGACCCCCGATAGGCTTGGTACATGCTTATTCTTGTCTCCC
modifications: 5'-NH2
In the case of B1, the binding result is reported as “binds”.
